Laboratory results taken from doi:10.1101/2021.09.27.461913v1.

Test system: O=c1[nH]c(=O)c2[nH]cnc2[nH]1
Assay: cells, lysate or membranes
Conditions: labelled compound

Substance: UapA (Aspergillus nidulans FGSC A4)
- Km: 6 ± 2 µM
